Laboratory results as given in patent US20140080161A1, “PHOSPHATASE COUPLED KINASE ASSAY” (RESEARCH AND DIAGNOSTIC SYSTEMS, INC., priority 2010, published 2014).

Key:
[1] = Coupling efficiency: ADP hydrolysis in presence versus absence of ATP; format: biochemical; conditions: for Slope of ADP Hydrolysis Curve (Si): 0.2 μg rhCD39L2, 20 minutes
Source text: The coupling efficiency of a phosphatase may be determined by measuring the rates of ADP hydrolysis in the presence of ATP, and in the absence of ATP, under conditions which are otherwise the same. The coupling efficiency is the ratio of the ADP hydrolysis rate in the presence of ATP to the ADP hydrolysis rate in the absence of ATP. As exemplified in Example 3 (FIG. 4), the coupling efficiency in the presence of i mM of ATP, Ci, is equal to the ratio of the slope of the corresponding ADP hydrolysis curve in the presence of i mM of ATP, Si, to the slope of the ADP hydrolysis curve in the absence of ATP, So. The coupling efficiency may be characterized by the following formula: […]
The coupling efficiency will vary depending upon the concentration of ATP. As such, the Ci may be calculated at various ATP concentrations and the results may be plotted to give a curve of coupling efficiency versus ATP concentration. In this way, the coupling efficiency may be determined for any concentration of ATP, such as the beginning concentration of ATP used in a reaction. The coupling efficiency can be obtained once the conditions for a kinase reaction are determined and may then be used to adjust the final measured kinase activity depending upon the ATP concentration. For example, the final measured ADP production may be divided by the coupling efficiency (assuming that the ATP concentration throughout the reaction is approximately constant) in order to calculate the actual ADP production. The coupling efficiency allows for measuring the kinase activity even at high levels of ATP, such as at intracellular ATP concentration levels, about 1 mM, which may be most biologically relevant for some reactions.
This experiment measured the coupling efficiency of CD39L2, which was the ratio of the rate of ADP hydrolysis in the presence of ATP to the rate of ADP hydrolysis in the absence of ATP, under conditions which were otherwise identical. In a series of reactions, increasing amounts of ADP (0 to 15 nmol, within the coupling capacity) were hydrolyzed with 0.2 μg of rhCD39L2 in the presence of various concentrations of ATP (0, 0.156, 0.312, 0.625, 1.25, 2.5, or 5 mM). The reactions were stopped after 20 minutes and the Malachite Green assay was performed and OD readings were taken at 620 nm.
Coupling efficiency in the presence of i mM of ATP (Ci) was determined from the ratio of the slope of the ADP hydrolysis curve in the presence of i mM ATP (Si) to the slope of the ADP hydrolysis curve in the absence of ATP (S0) according to Equation 1. For each concentration of ATP, Ci was calculated. […] The coupling efficiency may then be used to correct the data obtained for any competitive inhibition that might be caused by the ATP, especially at high concentrations of ATP.

[2] = Specific activity of the phosphatase (free phosphate released per time per amount); format: biochemical
Source text: Phosphatases used in embodiments of the invention have a high specific activity on ADP. The specific activity of the phosphatase used in the examples is the amount of free phosphate released from a substrate per unit time and per amount of phosphatase under a given set of conditions, and may be determined at the rising phase of an enzymatic dose curve, such as the hydrolysis curve as described above. In some embodiments, the phosphatase has a specific activity of greater than 100 pmol/min/μg under optimal conditions. The conditions may include optimal pH, salt concentrations, and the presence of any cofactor. In other embodiments, the phosphatase has a specific activity of greater than 1,000 pmol/min/μg. In still other embodiments, the phosphatase has a specific activity of greater than 20,000 pmol/min/μg. When phosphatases having lower specific activity are used, larger amounts of such phosphatases or longer reaction times may be used to achieve the same level of hydrolysis as can be achieved with a phosphatase having higher specific activity.

[3] = enzyme as obtained from R&D Systems; cited from earlier work

B1: rhCD39L2: recombinant human CD39L2, nucleotide phosphatase preferring ADP over ATP, used for coupling (protein, UniProt O75354 1-484, looked up)
Ectonucleoside triphosphate …: MKKGIRYETSRKTSYIFQQPQHGPWQTRMRKISNHGSLRVAKVAYPLGLCVGVFIYVAYIKWHRATATQAFFSITRAAPGARWGQQAHSPLGTAADGHEVFYGIMFDAGSTGTRVHVFQFTRPPRETPTLTHETFKALKPGLSAYADDVEKSAQGIRELLDVAKQDIPFDFWKATPLVLKATAGLRLLPGEKAQKLLQKVKKVFKASPFLVGDDCVSIMNGTDEGVSAWITINFLTGSLKTPGGSSVGMLDLGGGSTQIAFLPRVEGTLQASPPGYLTALRMFNRTYKLYSYSYLGLGLMSARLAILGGVEGQPAKDGKELVSPCLSPSFKGEWEHAEVTYRVSGQKAAASLHELCAARVSEVLQNRVHRTEEVKHVDFYAFSYYYDLAAGVGLIDAEKGGSLVVGDFEIAAKYVCRTLETQPQSSPFSCMDLTYVSLLLQEFGFPRSKVLKLTRKIDNVETSWALGAIFHYIDSLNRQKSPAS
Work on B1 yielded a coupling efficiency ([1]; 0.2 mM ATP, based on data of Example 3) of 0.9, a coupling efficiency ([1]; 2 mM ATP, based on data of Example 3) of 0.51 and a coupling efficiency ([1]; 4 mM ATP, predicted from data of Example 3 (FIG. 5)) of 0.4. The “Coupling Efficiency (Ci)” value ([1]; ATP 0 mM) was 1.00, the “Slope of ADP Hydrolysis Curve (Si)” value ([1]; ATP 0 mM) was 0.280 and the “Coupling Efficiency (Ci)” value ([1]; ATP 0.156 mM) was 0.97. For the same molecule, the “Slope of ADP Hydrolysis Curve (Si)” value ([1]; ATP 0.156 mM) was 0.271, the “Coupling Efficiency (Ci)” value ([1]; ATP 0.312 mM) was 0.74 and the “Slope of ADP Hydrolysis Curve (Si)” value ([1]; ATP 0.312 mM) was 0.207. For the same molecule, the “Coupling Efficiency (Ci)” value ([1]; ATP 0.625 mM) was 0.61, the “Slope of ADP Hydrolysis Curve (Si)” value ([1]; ATP 0.625 mM) was 0.170 and the “Coupling Efficiency (Ci)” value ([1]; ATP 1.25 mM) was 0.56. The “Slope of ADP Hydrolysis Curve (Si)” value ([1]; ATP 1.25 mM) was 0.157, the “Coupling Efficiency (Ci)” value ([1]; ATP 2.50 mM) was 0.48 and the “Slope of ADP Hydrolysis Curve (Si)” value ([1]; ATP 2.50 mM) was 0.134. The “Coupling Efficiency (Ci)” value ([1]; ATP 5.0 mM) was 0.34, the “Slope of ADP Hydrolysis Curve (Si)” value ([1]; ATP 5.0 mM) was 0.096 and the “specific activity on ADP” value [2] was > 20,000 pmol/min/μg. The specific activity [3] was > 20,000 pmol/min/μg.
